Legend:
[1] = molecular target: WN; test: competitive binding ELISA with WN as the surrogate Ag, from ID50 values
[2] = molecular target: antigen of LL2 (not named; LL2 is called an anti-B-cell monoclonal antibody); test: cell binding assay, calculated from the ID50 values; cells not named
[3] = molecular target: antigen of hMN14 (not named); test: competitive binding assay; format and target not stated
[4] = molecular target: antigen of LL2 (not named; LL2 is called an anti-B-cell monoclonal antibody); test: as above

With “LL2 F(ab')2, DOX-dextran conjugated (5.1 DOX/F(ab')2) (antibody)” the Immunoreactivity (%), ELISA [1] was 42.2% and the Immunoreactivity (%), Cell binding [2] was 41.9%.
Work on “LL2 F(ab')2, non-conjugated (murine mAb, naturally glycosylated in the V domain) (antibody)” yielded an Immunoreactivity (%), ELISA [1] of 100% and an Immunoreactivity (%), Cell binding [2] of 100%.
“hMN14 F(ab')2 with the grafted LL2 Vk glycosylation site, LC-DTPA conjugated at the Vk-CHO (2.1 chelators/F(ab')2) (antibody)” showed an Immunoreactivity (from ID50 against unmodified control F(ab')2) [3] of 100%.
With “mLL2 F(ab')2, DTPA conjugated at random lysines (2.2 chelators/F(ab')2) (antibody)” the Immunoreactivity (from ID50 against unmodified control F(ab')2) [4] was 75%.
Substance “mLL2 F(ab')2, DTPA conjugated at random lysines (4.3 chelators/F(ab')2) (antibody)” has an Immunoreactivity (from ID50 against unmodified control F(ab')2) [4] of 21%.
In the case of “mLL2 F(ab')2, DTPA conjugated at the Vk-CHO (5.5 chelators/F(ab')2) (antibody)”, the Immunoreactivity (from ID50 against unmodified control F(ab')2) [4] is reported as 100%.
In the case of “mLL2 F(ab')2, LC-DTPA conjugated at the Vk-CHO (4.6 chelators/F(ab')2) (antibody)”, the Immunoreactivity (from ID50 against unmodified control F(ab')2) [4] is reported as 100%.

From patent publication US6953675
